In doi:10.64898/2025.12.10.693372 (bioRxiv, 2025):

B1: R102-9 Fab (Fab, V domains shown)
VH: EVQLVESGGGLVQPGGSLRLSCAASGIIVSRNYMSWVRQAPGKRPEWVSLIYPGGSTFYADSVKGRFTISRDNSKNMLFLQMNSLRAEDTAVYYCARDLTIRGEASWGQGTLVTVSS
VL: EIVMTQSPATLSVSPGERATLSCRASQSFNSNLAWYQQKPGQAPRLLIYGASTRATGIPARFSGSGSGTEFTLTISSLQSEDFAVYYCQQYGDWPLWTFGQGTKVEIK
B2: ZL525 Fab (Fab, V domains shown)
V domain 1: QVQLVQSGAEVKKPGSSMKVSCQASGGTFSSHPISWIRQAPGQGLEWMGRIIPIAGMTDYGQKFQGRITITADTSTSTSYVELRGLRSQDTAFYYCAKDVGYSDYGSAYYFHTWGQGTLITVSS
V domain 2: QSVLTQPPSVSGAPGQRVTISCTGSNSNIGAGYDVHWYQQLPGTAPKLLIYRNNKRPSGVPDRFSGSKSDTSASLAITGLQAEDEAHYYCQSFDSSLGGSLFGGGTKLAVL
B3: ZL58 Fab (Fab, V domains shown)
VH: QLELVQSGGGLVQPGGSLRLSCAASEIAVSRNYMNWVRQGPGKGLEWVSIIYPGGSTFYADSVKGRFTISTDDSKNTLYLQMDSLSTDDTALYYCARQGPNGRNDFWGQGTLVTVSS
VL: DIQMTQSPSSLSASAGERVTITCQASQDINMYLNWYQQKPGKAPKLLIYDASNLETGVPSRFSGSGSVTEFTFTISSLQPEDIGTYYCHQYDSFPPTFGGGTKVDLK
B4: C092 Fab (Fab, V domains shown)
VH: QVQLVQSGAEVKKPGSSVKVSCKASGGSFTNHFISWVRQAPGQGLEWMGRIIPILGTANYAQNFQGRVMMTADKSTSTAYMELSSLRSEDTAVYYCARDSGYSGYGSTYYMDVWGKGTTVTVSS
VL: QSVLTQPPSVSGAPGQRVTISCTGSNSNIGAGYDVHWYQQLPGAAPKLLIYGNNNRPSGVPDRFSGSKSDTSASLAITGLQVEDEADYYCQSYDSSLSDSVFGSGTKVTVL

Key:
[1] = biological target: T1, SARS-CoV-2 Omicron JD.1.1 spike (S-6P) (SARS-CoV-2 Omicron JD.1.1, S-GSAS/6P (furin cleavage site, residues 682–685) | F817P | A892P | A899P | …); test: cryo-EM structure; conditions: both partners purified
T1 construct: also called JD.1.1 S-6P; Omicron JD.1.1 S-trimer (S-6P)

[2] = biological target: T2, SARS-CoV-2 Omicron LP.8.1 spike (S-6P) (SARS-CoV-2 Omicron LP.8.1, S-GSAS/6P (furin cleavage site, residues 682–685) | F817P | A892P | A899P | …); test: cryo-EM structure; conditions: both partners purified
T2 construct: also called LP.8.1 S-6P; Omicron LP.8.1.1 spike (S-6P)

| Binder | stoichiometry N [1] | stoichiometry N [2] |
| --- | --- | --- |
| B1 | 3 Fabs per S-trimer | – |
| B2 | – | 3 Fabs per S-trimer |
| B3 | – | 3 Fabs per S-trimer |
| B4 | 3 Fabs per S-trimer | – |
